Assay results reported in publication PMC8809517, “Cofactor-independent RNA editing by a synthetic S-type PPR protein”.

Key:
Test in all cases: high-throughput RNA pulldown from lysate on Ni-NTA beads; HRP: 50 mM Tris pH 8, 150 mM NaCl, 1 mM beta-mercaptoethanol, 50 ug/ml BSA, 3 ug/ml yeast RNA, 0.5% heparin; ITC and FP: Tris pH 8, 200 mM KCl, 5% glycerol; MST: 50 mM Tris pH 8, 200 mM NaCl, 1 mM DTT, BSA, heparin, 0.05% Tween 20
Details in all cases: tags: N-terminal His-eGFP
[1] = target: T1, GFP-9S library array, motif 4 ND N98P;D124T (synthetic construct, N98P;D124T)
T1 chain: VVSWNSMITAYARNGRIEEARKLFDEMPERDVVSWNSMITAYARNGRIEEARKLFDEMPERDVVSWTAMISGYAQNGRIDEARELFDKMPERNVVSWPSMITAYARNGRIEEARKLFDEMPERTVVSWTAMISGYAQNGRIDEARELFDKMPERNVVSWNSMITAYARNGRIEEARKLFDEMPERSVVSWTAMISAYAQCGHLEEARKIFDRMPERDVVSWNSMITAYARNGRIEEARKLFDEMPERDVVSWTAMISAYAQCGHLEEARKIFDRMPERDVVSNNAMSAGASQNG

[2] = target: T2, GFP-9S library array, motif 4 ND N98D;D124P (synthetic construct, N98D;D124P)
T2 chain: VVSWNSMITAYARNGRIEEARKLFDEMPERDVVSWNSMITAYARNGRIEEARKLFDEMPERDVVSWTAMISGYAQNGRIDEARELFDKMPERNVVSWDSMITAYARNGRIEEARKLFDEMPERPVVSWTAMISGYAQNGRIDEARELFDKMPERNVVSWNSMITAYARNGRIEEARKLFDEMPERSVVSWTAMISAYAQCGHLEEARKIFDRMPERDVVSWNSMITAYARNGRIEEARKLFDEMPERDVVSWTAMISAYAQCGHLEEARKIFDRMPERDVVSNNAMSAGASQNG

[3] = target: T3, GFP-9S library array, motif 4 ND N98K;D124T (synthetic construct, N98K;D124T)
T3 chain: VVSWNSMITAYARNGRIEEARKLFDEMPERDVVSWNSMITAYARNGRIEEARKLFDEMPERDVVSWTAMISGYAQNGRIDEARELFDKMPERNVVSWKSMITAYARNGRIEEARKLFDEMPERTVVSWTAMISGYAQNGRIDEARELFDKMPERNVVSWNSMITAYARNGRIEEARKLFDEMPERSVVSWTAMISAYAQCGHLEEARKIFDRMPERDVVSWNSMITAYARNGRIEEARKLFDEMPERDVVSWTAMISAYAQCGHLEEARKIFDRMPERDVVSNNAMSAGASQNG

[4] = target: T4, GFP-9S library array, motif 4 ND N98C;D124E (synthetic construct, N98C;D124E)
T4 chain: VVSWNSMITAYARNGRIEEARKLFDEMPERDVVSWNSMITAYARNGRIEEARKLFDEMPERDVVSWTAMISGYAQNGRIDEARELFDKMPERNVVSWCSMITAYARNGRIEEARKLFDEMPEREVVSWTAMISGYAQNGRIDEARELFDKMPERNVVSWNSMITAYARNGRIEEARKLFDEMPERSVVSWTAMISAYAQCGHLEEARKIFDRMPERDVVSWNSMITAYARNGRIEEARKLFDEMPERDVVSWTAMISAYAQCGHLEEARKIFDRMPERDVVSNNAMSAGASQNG

[5] = target: T5, GFP-9S library array, motif 4 ND N98A;D124C (synthetic construct, N98A;D124C)
T5 chain: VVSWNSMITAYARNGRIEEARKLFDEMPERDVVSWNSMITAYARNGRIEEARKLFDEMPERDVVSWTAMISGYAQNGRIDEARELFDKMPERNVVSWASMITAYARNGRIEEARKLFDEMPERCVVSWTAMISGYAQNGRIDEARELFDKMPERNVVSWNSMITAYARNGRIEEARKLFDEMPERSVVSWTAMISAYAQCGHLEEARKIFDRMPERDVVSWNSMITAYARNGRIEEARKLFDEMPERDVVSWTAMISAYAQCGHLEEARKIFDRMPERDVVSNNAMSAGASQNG

Binder | Kd ([1]; label: 5' Cy5) [nM] | Kd ([2]; label: 5' Cy5) [nM] | Kd ([3]; label: 5' Cy5) [nM] | Kd ([4]; label: 5' Cy5) [nM] | Kd ([5]; label: 5' Cy5) [nM] | Kd ([1]; label: 5' IRDye 800CW) [nM] | Kd ([2]; label: 5' IRDye 800CW) [nM] | Kd ([3]; label: 5' IRDye 800CW) [nM] | Kd ([4]; label: 5' IRDye 800CW) [nM] | Kd ([5]; label: 5' IRDye 800CW) [nM]
AUUACACGUGA (ssRNA) [Cy5-rpoA] | 176 | 202 | 76.8 | 503 | 112 |  |  |  |  | 
AUUAGACGUGA (ssRNA) [Cy5-rpoA-G] | 177 | 157 | 83.6 | 39.5 | 73.1 |  |  |  |  | 
AUUAAACGUGA (ssRNA) [IR-rpoA-A] |  |  |  |  |  | 405 | 341 | 211 | 146 | 163
AUUAUACGUGA (ssRNA) [IR-rpoA-U] |  |  |  |  |  | 179 | 501 | 212 | 170 | 92.2
